Experimental data published in doi:10.1101/2021.10.18.464838.

How the values were obtained:
[1] = target: Hsp72 tracer FITC-Ahx-…; assay: fluorescence polarisation
[2] = target: DnaJB4 (recombinant, human, full length, wild type) (human) (UniProt Q9UDY4); assay: fluorescence polarisation
[3] = target: DnaJB4 (recombinant, human, full length, wild type) (human) (UniProt Q9UDY4); assay: differential scanning fluorimetry

CHIP (recombinant human) (from UniProt Q9UNE7 1-303) (natural protein)
Kd [1]: 1 µM

DnaJB4 QPD mutant (from UniProt Q9UDY4 1-337) (natural protein)
Kd [1]: 2.03 µM

Hsc70 C-terminal 10-mer peptide, unlabeled, N-acetylated
% tracer displacement [2]: 67.6%
Tmapp of DnaJB4 with 100 µM peptide [3]: 59 °C
